According to patent EP3470429A1 (Numab Innovation AG, dated 2019):

Columns and labels:
[1] = target: T1, human PD-L1-Fc chimeric protein (human, UniProt Q9NZQ7 19-238); test: SPR Biacore T200, PD-L1-Fc captured by anti-human Fc
T1 construct: not shown: Fc part, captured by an anti-human IgG Fc antibody

human serum albumin = target: T2, human serum albumin (human, UniProt P02768 25-609); test: SPR Biacore T200, SA amine-coupled to CM5 chip, pH 5.5
T2 construct: also called HSA; human SA

[2] = target: human PD-L1 expressed on cells (human, UniProt Q9NZQ7 19-290); test: cell-based or functional assay

B1: PRO1123 (bispecific antibody)
chain: DIQMTQSPSSLSASVGDRVTITCQASQSINDYLAWYQQKPGKAPKLLIYKASTLASGVPSRFSGSGSGTDFTLTISSLQPEDFATYYCQQGYIITDIDNVFGTGTKVTVLGGGGGSQVQLQESGPGLVKPSETLSLTCKVSGFSFSNSYWICWVRQPPGKGLEWIGCTFVGSSDSTYYANWAKGRVTISVDSSKNQVSLKLSSVTAADTAVYFCARHPSDAVYGYANNLWGQGTLVTVSSGGGGSGGGGSGGGGSGGGGSIQMTQSPSSLSASVGDRVTITCQASQSINNVLAWYQQKPGKPPKLLIYRASTLASGVPSRFSGSGSGTDFTLTISSLQPEDFATYYCQSSYGNYGDFGTGTKVTVLGGGGGSQVQLQESGPGLVKPSETLSLTCKVSGFSFSSGYDMCWIRQPPGKGLEWIGCVVAGSVDITYYASWAKGRVTISVDSSKNQFSLKLSSVTAADTAVYYCARKDAYSDAFNLWGQGTLVTVSS
notes: also called 38-02-A04 sc05 IF scDb-i/33 03 G02 sc01 scDb-o
B1: binds [1].

B2: PRO963 (other)
chain: DIQMTQSPSSLSASVGDRVTITCQASQSINDYLAWYQQKPGKAPKLLIYKASTLASGVPSRFSGSGSGTDFTLTISSLQPEDFATYYCQQGYIITDIDNVFGTGTKVTVLGGGGGSQVQLQESGPGLVKPSETLSLTCKVSGFSFSNSYWICWIRQPPGKGLEWIGCTFVGSSDSTYYANWAKGRVTISVDSSKNQFSLKLSSVTAADTAVYYCARHPSDAVYGYANNLWGQGTLVTVSSGGGGSGGGGSGGGGSGGGGSIQMTQSPSSLSASVGDRVTITCQASQSINNVLAWYQQKPGKAPKLLIYRASTLASGVPSRFSGSGSGTDFTLTISSLQPEDFATYYCQSSYGNYGDFGTGTKVTVLGGGGGSQVQLQESGPGLVKPSETLSLTCKVSGFSFSSGYDMCWIRQPPGKGLEWIGCVVAGSVDITYYASWAKGRVTISVDSSKNQFSLKLSSVTAADTAVYYCARKDAYSDAFNLWGQGTLVTVSSGGGGSGGGGSIQMTQSPSSLSASVGDRVTITCQSSESVYSNNQLSWYQQKPGQPPKLLIYDASDLASGVPSRFSGSGSGTDFTLTISSLQPEDFATYYCAGGFSSSSDTAFGGGTKLTVLGGGGGSGGGGSGGGGSGGGGSEVQLVESGGGLVQPGGSLRLSCAASGFSLSSNAMGWVRQAPGKGLEYIGIISVGGFTYYASWAKGRFTISRDNSKNTVYLQMNSLRAEDTATYFCARDRHGGDSSGAFYLWGQGTLVTVSS
notes: also called PRO1051; 38_02_A04 sc01 scDb-i/33-03-G02 sc01 scDb-o/19-01-H04-sc03 scFv
For B2, the binding result (human serum albumin) was “binds” and the “IC50 (ng/ml), NF-AT Potency assay, with HSA” value [2] was 275 ng/mL.

B3: PRO1059 (bispecific antibody, human IgG1, kappa, L234A L235A)
light: DIQMTQSPSSLSASVGDRVTITCQASQSINDYLAWYQQKPGKAPKLLIYKASTLASGVPSRFSGSGSGTDFTLTISSLQPEDFATYYCQQGYIITDIDNVFGTGTKVTVLGTVAAPSVFIFPPSDEQLKSGTASVVCLLNNFYPREAKVQWKVDNALQSGNSQESVTEQDSKDSTYSLSSTLTLSKADYEKHKVYACEVTHQGLSSPVTKSFNRGECGGGGSGGGGSIQMTQSPSSLSASVGDRVTITCQASQSINNVLAWYQQKPGKAPKLLIYRASTLASGVPSRFSGSGSGTDFTLTISSLQPEDFATYYCQSSYGNYGDFGTGTKVTVLGGGGGSGGGGSGGGGSGGGGSQVQLQESGPGLVKPSETLSLTCKVSGFSFSNSYWICWIRQPPGKGLEWIGCTFVGSSDSTYYANWAKGRVTISVDSSKNQFSLKLSSVTAADTAVYYCARHPSDAVYGYANNLWGQGTLVTVSS
heavy: QVQLQESGPGLVKPSETLSLTCKVSGFSFSSGYDMCWIRQPPGKGLEWIGCVVAGSVDITYYASWAKGRVTISVDSSKNQFSLKLSSVTAADTAVYYCARKDAYSDAFNLWGQGTLVTVSSASTKGPSVFPLAPSSKSTSGGTAALGCLVKDYFPEPVTVSWNSGALTSGVHTFPAVLQSSGLYSLSSVVTVPSSSLGTQTYICNVNHKPSNTKVDKRVEPKSCDKTHTCPPCPAPEAAGGPSVFLFPPKPKDTLMISRTPEVTCVVVDVSHEDPEVKFNWYVDGVEVHNAKTKPREEQYNSTYRVVSVLTVLHQDWLNGKEYKCKVSNKALGAPIEKTISKAKGQPREPQVYTLPPSREEMTKNQVSLTCLVKGFYPSDIAVEWESNGQPENNYKTTPPVLDSDGSFFLYSKLTVDKSRWQQGNVFSCSVMHEALHNHYTQKSLSLSPGK
B3 was tested, and the “IC50 (ng/ml), NF-AT Potency assay” value [2] was 93.8 ng/mL.

B4: PRO1060 (bispecific antibody, human IgG1, kappa, L234A L235A)
light: DIQMTQSPSSLSASVGDRVTITCQASQSINDYLAWYQQKPGKAPKLLIYKASTLASGVPSRFSGSGSGTDFTLTISSLQPEDFATYYCQQGYIITDIDNVFGTGTKVTVLGTVAAPSVFIFPPSDEQLKSGTASVVCLLNNFYPREAKVQWKVDNALQSGNSQESVTEQDSKDSTYSLSSTLTLSKADYEKHKVYACEVTHQGLSSPVTKSFNRGEC
heavy: QVQLQESGPGLVKPSETLSLTCKVSGFSFSSGYDMCWIRQPPGKGLEWIGCVVAGSVDITYYASWAKGRVTISVDSSKNQFSLKLSSVTAADTAVYYCARKDAYSDAFNLWGQGTLVTVSSASTKGPSVFPLAPSSKSTSGGTAALGCLVKDYFPEPVTVSWNSGALTSGVHTFPAVLQSSGLYSLSSVVTVPSSSLGTQTYICNVNHKPSNTKVDKRVEPKSCDKTHTCPPCPAPEAAGGPSVFLFPPKPKDTLMISRTPEVTCVVVDVSHEDPEVKFNWYVDGVEVHNAKTKPREEQYNSTYRVVSVLTVLHQDWLNGKEYKCKVSNKALGAPIEKTISKAKGQPREPQVYTLPPSREEMTKNQVSLTCLVKGFYPSDIAVEWESNGQPENNYKTTPPVLDSDGSFFLYSKLTVDKSRWQQGNVFSCSVMHEALHNHYTQKSLSLSPGKGGGGSGGGGSIQMTQSPSSLSASVGDRVTITCQASQSINNVLAWYQQKPGKAPKLLIYRASTLASGVPSRFSGSGSGTDFTLTISSLQPEDFATYYCQSSYGNYGDFGTGTKVTVLGGGGGSGGGGSGGGGSGGGGSQVQLQESGPGLVKPSETLSLTCKVSGFSFSNSYWICWIRQPPGKGLEWIGCTFVGSSDSTYYANWAKGRVTISVDSSKNQFSLKLSSVTAADTAVYYCARHPSDAVYGYANNLWGQGTLVTVSS
B4 was tested, and the “IC50 (ng/ml), NF-AT Potency assay” value [2] was 133 ng/mL.

B5: PRO1013 (scFv)
scFv: DIQMTQSPSSLSASVGDRVTITCQASQSIGTYLAWYQQKPGKAPKLLIYRAFILASGVPSRFSGSGSGTDFTLTISSLQPEDFATYYCQSNFYSDSTTIGPNAFGTGTKVTVLGGGGGSGGGGSGGGGSGGGGSQVQLVQSGAEVKKPGASVKVSCKASGFSFNSDYWIYWVRQAPGQGLEWMGSIYGGSSGNTQYASWAQGRVTMTRDTSISTAYMELSSLRSEDTAVYYCARGYVDYGGATDLWGQGTLVTVSS
B5 was tested, and the “IC50 (ng/ml), NF-AT Potency assay” value [2] was 21.3 ng/mL.

B6: PRO830 (scFv)
scFv: DIQMTQSPSSLSASVGDRVTITCQASQSINDYLAWYQQKPGKAPKLLIYKASTLASGVPSRFSGSGSGTDFTLTISSLQPEDFATYYCQQGYIITDIDNVFGTGTKVTVLGGGGGSGGGGSGGGGSGGGGSQVQLQESGPGLVKPSETLSLTCKVSGFSFSSGYDMCWIRQPPGKGLEWIGCVVAGSVDITYYASWAKGRVTISVDSSKNQFSLKLSSVTAADTAVYYCARKDAYSDAFNLWGQGTLVTVSS
B6 was tested, and the “IC50 (ng/ml), NF-AT Potency assay” value [2] was 42.9 ng/mL.

B7: PRO951 (bispecific antibody)
chain: DIQMTQSPSSLSASVGDRVTITCQASQSINDYLAWYQQKPGKAPKLLIYKASTLASGVPSRFSGSGSGTDFTLTISSLQPEDFATYYCQQGYIITDIDNVFGTGTKVTVLGGGGGSEVQLVESGGGLVQPGGSLRLSCAASGFSFNNDYDMCWVRQAPGKGLEWIGCIDTGDGSTYYASWAKGRFTISRDNSKNTVYLQMNSLRAEDTAVYYCAREAASSSGYGMGYFDLWGQGTLVTVSSGGGGSGGGGSGGGGSGGGGSIQMTQSPSSLSASVGDRVTITCQSSQSVYDNNWLAWYQQKPGKAPKLLIYRASNLASGVPSRFSGSGSGTDFTLTISSLQPEDFATYYCQGTYLSSNWYWAFGTGTKVTVLGGGGGSQVQLQESGPGLVKPSETLSLTCKVSGFSFSSGYDMCWIRQPPGKGLEWIGCVVAGSVDITYYASWAKGRVTISVDSSKNQFSLKLSSVTAADTAVYYCARKDAYSDAFNLWGQGTLVTVSS
For B7, the “IC50 (ng/ml), NF-AT Potency assay” value [2] was 88.5 ng/mL.

B8: PRO966 (other)
chain: DIQMTQSPSSLSASVGDRVTITCQASQSINDYLAWYQQKPGKAPKLLIYKASTLASGVPSRFSGSGSGTDFTLTISSLQPEDFATYYCQQGYIITDIDNVFGTGTKVTVLGGGGGSQVQLQESGPGLVKPSETLSLTCKVSGFSFNNDYDMCWIRQPPGKGLEWIGCIDTGDGSTYYASWAKGRVTISVDSSKNQFSLKLSSVTAADTAVYYCAREAASSSGYGMGYFDLWGQGTLVTVSSGGGGSGGGGSGGGGSGGGGSIQMTQSPSSLSASVGDRVTITCQSSQSVYDNNWLAWYQQKPGKAPKLLIYRASNLASGVPSRFSGSGSGTDFTLTISSLQPEDFATYYCQGTYLSSNWYWAFGTGTKVTVLGGGGGSQVQLQESGPGLVKPSETLSLTCKVSGFSFSSGYDMCWIRQPPGKGLEWIGCVVAGSVDITYYASWAKGRVTISVDSSKNQFSLKLSSVTAADTAVYYCARKDAYSDAFNLWGQGTLVTVSSGGGGSGGGGSIQMTQSPSSLSASVGDRVTITCQSSESVYSNNQLSWYQQKPGQPPKLLIYDASDLASGVPSRFSGSGSGTDFTLTISSLQPEDFATYYCAGGFSSSSDTAFGGGTKLTVLGGGGGSGGGGSGGGGSGGGGSEVQLVESGGGLVQPGGSLRLSCAASGFSLSSNAMGWVRQAPGKGLEYIGIISVGGFTYYASWAKGRFTISRDNSKNTVYLQMNSLRAEDTATYFCARDRHGGDSSGAFYLWGQGTLVTVSS
notes: also called PRO1052; 38_27_C05 sc01 scDb-i/33-03-G02 sc01 scDb-o/19-01-H04-sc03 scFv
B8: binds [1]; binds (human serum albumin).

B9: PRO1058 (other)
chain: DIQMTQSPSSLSASVGDRVTITCQASQSINDYLAWYQQKPGKAPKLLIYKASTLASGVPSRFSGSGSGTDFTLTISSLQPEDFATYYCQQGYIITDIDNVFGTGTKVTVLGGGGGSQVQLQESGPGLVKPSETLSLTCKVSGFSFNNDYDMCWIRQPPGKGLEWIGCIDTGDGSTYYASWAKGRVTISVDSSKNQFSLKLSSVTAADTAVYYCAREAASSSGYGMGYFDLWGQGTLVTVSSGGGGSGGGGSGGGGSGGGGSIQMTQSPSSLSASVGDRVTITCQSSQSVYDNNWLAWYQQKPGKAPKLLIYRASNLASGVPSRFSGSGSGTDFTLTISSLQPEDFATYYCQGTYLSSNWYWAFGTGTKVTVLGGGGGSQVQLQESGPGLVKPSETLSLTCKVSGFSFSSGYDMCWIRQPPGKGLEWIGCVVAGSVDITYYASWAKGRVTISVDSSKNQFSLKLSSVTAADTAVYYCARKDAYSDAFNLWGQGTLVTVSSGGGGSGGGGSVVMTQSPSSLSASVGDRVTITCQASQIISSRSAWYQQKPGQPPKLLIYQASKLASGVPSRFSGSGSGTDFTLTISSLQPEDFATYYCQCTYIDSNFGAFGGGTKLTVLGGGGGSGGGGSGGGGSGGGGSEVQLVESGGGLVQPGGSLRLSCAASGFSFSSSYWICWVRQAPGKGLEWVGCVFTGDGTTYYASWAKGRFTISRDNSKNTVYLQMNSLRAEDTATYFCARPVSVYYYGMDLWGQGTLVTVSS
notes: also called 38_27_C05 sc01 scDb-i/33-03-G02 sc01 scDb-o/mxr HSA (23-13-A01-sc03,sk17sh4)
B9: binds [1]; binds (human serum albumin).
